The text below walks through data of PMC11321386 (Blood advances, 2024).

In the assay the target is GPVI-Fc dimer (UniProt Q9HCN6). Put plainly: ELISA. (ELISA stands for enzyme-linked immunosorbent assay.)

B1: nanobody 2 (Nb2) (VHH)
VHH: QVQLQESGGGLVQPGGSLRLSCAAAGFTFDYYAIAWFRQAPGKEREGVSCISSSDGTTYYADSVKGRFTISKDNAKNTMYLQMNSLKPEDTAVYYCATSPLYSTNDRCISEDYDYWGQGTQVTVSS
Take B1: the binding result is recorded as “binds”.
